In US20260174875A1 (Novo Nordisk A/S, priority 2023, published 2026):
Numbered stars: 1 amine (or outer) side, 2 acyl side, 3 side chain; on linkers, the order of the positions; unused ones are H or OH. Square brackets hold non-standard residues; d marks the D form. Side chains are listed from the residue outwards. * marks the point of attachment. C20 diacid = O=C(O)CCCCCCCCCCCCCCCCCCC(=O)*; C18 diacid = O=C(O)CCCCCCCCCCCCCCCCC(=O)*; γGlu = O=C(O)[C@H](CCC(=O)[*:2])N[*:1]; Chem. 27 = not defined here; Chem. 28 = not defined here; Chem. 29 = not defined here; AEEA = NCCOCCOCC(=O)O; Aib = CC(C)(N)C(=O)O

T1: human GIP receptor (human, UniProt P48546 22-466)
T1 sequence (looked up): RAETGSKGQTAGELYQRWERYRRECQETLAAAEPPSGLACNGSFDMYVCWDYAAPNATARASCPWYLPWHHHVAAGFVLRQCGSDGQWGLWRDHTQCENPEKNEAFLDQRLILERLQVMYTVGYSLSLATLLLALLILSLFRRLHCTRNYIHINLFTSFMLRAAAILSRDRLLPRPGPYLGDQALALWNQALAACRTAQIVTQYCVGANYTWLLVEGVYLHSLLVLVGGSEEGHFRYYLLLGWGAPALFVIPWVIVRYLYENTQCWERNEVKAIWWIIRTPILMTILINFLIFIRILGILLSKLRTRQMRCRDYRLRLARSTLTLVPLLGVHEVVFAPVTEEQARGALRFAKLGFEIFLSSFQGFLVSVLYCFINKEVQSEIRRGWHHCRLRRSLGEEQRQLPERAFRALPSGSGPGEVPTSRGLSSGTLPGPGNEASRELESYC

T2: human amylin-3(a) receptor (human, UniProt P30988 25-474; O60896 24-148)
T2 sequence (looked up) 1: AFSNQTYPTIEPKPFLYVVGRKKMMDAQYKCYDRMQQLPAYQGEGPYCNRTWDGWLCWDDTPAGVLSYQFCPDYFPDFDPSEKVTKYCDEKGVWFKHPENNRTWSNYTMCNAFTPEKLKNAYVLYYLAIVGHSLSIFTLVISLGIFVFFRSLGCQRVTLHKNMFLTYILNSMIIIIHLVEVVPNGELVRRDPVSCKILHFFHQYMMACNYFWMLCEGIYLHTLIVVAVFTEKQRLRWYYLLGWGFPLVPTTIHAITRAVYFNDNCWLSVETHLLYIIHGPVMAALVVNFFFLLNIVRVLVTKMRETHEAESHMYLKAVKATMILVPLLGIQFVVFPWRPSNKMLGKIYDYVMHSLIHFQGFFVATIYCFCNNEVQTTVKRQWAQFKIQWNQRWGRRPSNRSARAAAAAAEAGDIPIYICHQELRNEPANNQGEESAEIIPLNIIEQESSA
T2 sequence (looked up) 2: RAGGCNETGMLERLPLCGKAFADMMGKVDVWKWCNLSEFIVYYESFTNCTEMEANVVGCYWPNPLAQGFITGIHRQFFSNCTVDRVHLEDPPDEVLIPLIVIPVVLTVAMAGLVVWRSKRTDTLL

B1: Compound 101 (peptide)
peptide: H[Aib]HGTFTSDYSILLEEQAAREFIEWLLAGGPSK(Chem. 28)GAPPPSGGGEASHLSTAQTARLSAELHQLATLPRTETGSGSP-NH2
modifications: reading uncertain
B2: Compound 110 (peptide)
peptide: Y[Aib]EGTFTSDYSILLEEQAAREFIEWLLAGGPSSGAPPPSGGGEASHLSTAQTQRLSAK([AEEA-AEEA-γGlu-C20 diacid])LHRLATLPRTETGSGSP-NH2
modifications: not fully specified
B3: Compound 106 (peptide)
peptide: H[Aib]HGTFTSDYSILLEEQAAREFIEWLLAGGPSSGALQAPGQAPGASHLSTAQTARLSAELHRLK(Chem. 28)TLPRTETGSGSP-NH2
modifications: reading uncertain
B4: Compound 99 (peptide)
peptide: Y[Aib]EGTFTSDYSILLEEQAAREFIEWLLAGGPSSGALQAPGQAPLASHLSTAQTQRLSAELHKLATLPRTETGSGSP-NH2
modifications: not fully specified (residue 62)
B5: Compound 108 (peptide)
peptide: H[Aib]HGTFTSDYSILLEEQAAREFIEWLLAGGPSSGALQAPGQAPLASHLSTAQTARLSAELHK(Chem. 28)LATLPRTETGSGSP-NH2
modifications: reading uncertain
B6: Compound 111 (peptide)
peptide: Y[Aib]EGTFTSDYSILLEEQAAREFIEWLLAGGPSSGAGQAPGQAPGASHLSTAQTQRLSAELHRLK([AEEA-AEEA-AEEA-γGlu-C18 diacid])TLPRTETGSGSP-NH2
B7: Compound 112 (peptide)
peptide: H[Aib]HGTFTSDYSILLEEQAAREFIEWLLAGGPSK([γGlu-C18 diacid])GAPPPSGGGEASHLSTAQTARLSAELHRLADLPRTETGSGSP-NH2
B8: Compound 100 (peptide)
peptide: H[Aib]HGTFTSDYSILLEEQAAREFIEWLLAGGPSK(Chem. 28)GAPPPSGGGEASHLSTAQTARLSAELHRLADLPRTETGSGSP-NH2
modifications: reading uncertain
B9: Compound 102 (peptide)
peptide: Y[Aib]EGTFTSDYSILLEEQAAREFIEWLLAGGPSSGAGQAPGQAPGASHLSTAQTQRLSAELHQLK(Chem. 28)TLPRTETGSGSP-NH2
modifications: reading uncertain
B10: Compound 105 (peptide)
peptide: Y[Aib]EGTFTSDYSILLEEQAAREFIEWLLAGGPSSGALQAPGQAPLASHLSTAQTARLSAELHK(Chem. 28)LATLPRTETGSGSP-NH2
modifications: reading uncertain
B11: Compound 104 (peptide)
peptide: H[Aib]HGTFTSDYSILLEEQAAREFIEWLLAGGPSSGAGQAPGQAPGASHLSTAQTARLSAELHK(Chem. 27)LATLPRTETGSGSP-NH2
modifications: reading uncertain
B12: Compound 11 (peptide)
peptide: Y[Aib]EGTFTSDYSILLEEQAAREFIEWLLAGGPSK(Chem. 29)GEASELSTAALGRLSAELHELATLPRTETGSGSP-NH2
modifications: reading uncertain
B13: Compound 98 (peptide)
peptide: Y[Aib]EGTFTSDYSILLEEQAAREFIEWLLAGGPSSGAGQAPGQAPLASHLSTAQTARLSAELHK([AEEA-AEEA-γGlu-C18 diacid])LATLPRTETGSGSP-NH2
B14: Compound 113 (peptide)
peptide: Y[Aib]EGTFTSDYSILLEEQAAREFIEWLLAGGPSSGAGQAPGQAPGASHLSTAQTARLSAELHK([AEEA-AEEA-γGlu-C18 diacid])LATLPRTETGSGSP-NH2
B15: Compound 109 (peptide)
peptide: Y[Aib]EGTFTSDYSILLEEQAAREFIEWLLAGGPSSGAPPPSGGGEASHLSTAQTQRLSAK(Chem. 28)LHRLATLPRTETGSGSP-NH2
modifications: not fully specified; reading uncertain
B16: Compound 103 (peptide)
peptide: H[Aib]HGTFTSDYSILLEEQAAREFIEWLLAGGPSSGAGQAPGQAPGASHLSTAQTARLSAELHK(Chem. 28)LATLPRTETGSGSP-NH2
modifications: reading uncertain
B17: Compound 107 (peptide)
peptide: H[Aib]HGTFTSDYSILLEEQAAREFIEWLLAGGPSSGALQAPGQAPGASHLSTAQTARLSAELHRLATLPK(Chem. 28)TETGSGSP-NH2
modifications: reading uncertain

molecular target: T1, human GIP receptor; test: cell-based or functional assay

Row | Binder | hGIPR Potency, no HSA, EC50 [pM]
1 | B1 | 1.87 pM
2 | B2 | 8.01 pM
3 | B3 | 4.8 pM
4 | B4 | 2.09 pM
5 | B5 | 4.01 pM
6 | B6 | 3.66 pM
7 | B7 | 2.42 pM
8 | B8 | 3.95 pM
9 | B9 | 2.24 pM
10 | B10 | 3.08 pM
11 | B11 | 3.57 pM
12 | B12 | 1.69 pM
13 | B13 | 2.58 pM
14 | B14 | 2.02 pM
15 | B15 | 7.42 pM
16 | B16 | 3.14 pM
17 | B17 | 3.87 pM

molecular target: T3, human GLP-1 receptor (human, UniProt P43220 24-463); test: cell-based or functional assay

Row | Binder | hGLP-1R Potency, no HSA, EC50 [pM]
18 | B1 | 3.24 pM
19 | B2 | 107 pM
20 | B3 | 3.33 pM
21 | B4 | 16.7 pM
22 | B5 | 4.57 pM
23 | B6 | 15.9 pM
24 | B7 | 4.37 pM
25 | B8 | 5.85 pM
26 | B9 | 11 pM
27 | B10 | 12.6 pM
28 | B11 | 4.16 pM
29 | B12 | 10.4 pM
30 | B13 | 13.3 pM
31 | B14 | 14.4 pM
32 | B15 | 68.9 pM
33 | B16 | 5.24 pM
34 | B17 | 4.1 pM

molecular target: T2, human amylin-3(a) receptor; test: cell-based or functional assay

Row | Binder | hAMYR3 Potency, no HSA, EC50 [pM]
35 | B1 | 3.08 pM
36 | B2 | 3.27 pM
37 | B3 | 2.07 pM
38 | B4 | 2.82 pM
39 | B5 | 2.48 pM
40 | B6 | 3.33 pM
41 | B7 | 3.65 pM
42 | B8 | 3.05 pM
43 | B9 | 3.26 pM
44 | B10 | 2.88 pM
45 | B11 | 1.49 pM
46 | B12 | 12.8 pM
47 | B13 | 2.3 pM
48 | B14 | 2.53 pM
49 | B15 | 3.65 pM
50 | B16 | 2.42 pM
51 | B17 | 3.07 pM

molecular target: T1, human GIP receptor; test: cell-based or functional assay; remark: another data set of the same source

Row | Binder | hGIPR Potency, 1% HSA, EC50 [pM]
52 | B1 | 129 pM
53 | B2 | 29.3 pM
54 | B3 | 10.3 pM
55 | B4 | 7.41 pM
56 | B5 | 11.4 pM
57 | B6 | 12.2 pM
58 | B7 | 321 pM
59 | B8 | 217 pM
60 | B9 | 12.2 pM
61 | B10 | 12.5 pM
62 | B11 | 17.3 pM
63 | B12 | 58.3 pM
64 | B13 | 11.2 pM
65 | B14 | 8.96 pM
66 | B15 | 17.4 pM
67 | B16 | 13.3 pM
68 | B17 | 8.76 pM

molecular target: T3, human GLP-1 receptor; test: cell-based or functional assay; remark: another data set of the same source

Row | Binder | hGLP-1R Potency, 1% HSA, EC50 [pM]
69 | B1 | 179 pM
70 | B2 | 169 pM
71 | B3 | 11.1 pM
72 | B4 | 36.2 pM
73 | B5 | 15 pM
74 | B6 | 34.8 pM
75 | B7 | 336 pM
76 | B8 | 307 pM
77 | B9 | 47 pM
78 | B10 | 48.9 pM
79 | B11 | 19.1 pM
80 | B12 | 204 pM
81 | B13 | 43.1 pM
82 | B14 | 57.5 pM
83 | B15 | 94.7 pM
84 | B16 | 33.1 pM
85 | B17 | 13.9 pM

molecular target: T2, human amylin-3(a) receptor; test: cell-based or functional assay; remark: another data set of the same source

Row | Binder | hAMYR3 Potency, 1% HSA, EC50 [pM]
86 | B1 | 95.5 pM
87 | B2 | 94 pM
88 | B3 | 31.2 pM
89 | B4 | 129 pM
90 | B5 | 60 pM
91 | B6 | 66.4 pM
92 | B7 | 269 pM
93 | B8 | 210 pM
94 | B9 | 134 pM
95 | B10 | 113 pM
96 | B11 | 293 pM
97 | B12 | 211 pM
98 | B13 | 108 pM
99 | B14 | 136 pM
100 | B15 | 32 pM
101 | B16 | 73.6 pM
102 | B17 | 93.1 pM
